In patent US20060263802A1 (CRUCELL HOLLAND B V, published 2006):

Columns and labels:
Assay in all cases: PEPSCAN ELISA, looped peptide, 10 ug/ml
[1] = target: looped/cyclic peptide … (rabies virus strain ERA)
[2] = target: looped/cyclic peptide … (rabies virus strain ERA); remark: listed apart in the source
[3] = target: looped/cyclic peptide … (rabies virus strain ERA); remark: listed apart in the source
[4] = target: looped/cyclic peptide … (rabies virus strain ERA); remark: listed apart in the source
[5] = target: looped/cyclic peptide … (rabies virus strain ERA); remark: listed apart in the source
[6] = target: looped/cyclic peptide … (rabies virus strain ERA); remark: listed apart in the source
[7] = target: looped/cyclic peptide … (rabies virus strain ERA); remark: listed apart in the source
[8] = target: looped/cyclic peptide … (rabies virus strain ERA); remark: listed apart in the source
[9] = target: looped/cyclic peptide … (rabies virus strain ERA); remark: listed apart in the source
[10] = target: looped/cyclic peptide … (rabies virus strain ERA); remark: listed apart in the source
[11] = target: looped/cyclic peptide … (rabies virus strain ERA); remark: listed apart in the source
[12] = target: looped/cyclic peptide … (rabies virus strain ERA); remark: listed apart in the source
[13] = target: looped/cyclic peptide … (rabies virus strain ERA); remark: listed apart in the source
[14] = target: looped/cyclic peptide … (rabies virus strain ERA); remark: listed apart in the source
[15] = target: looped/cyclic peptide … (rabies virus strain ERA); remark: listed apart in the source
[16] = target: looped/cyclic peptide … (rabies virus strain ERA); remark: listed apart in the source
[17] = target: looped/cyclic peptide … (rabies virus strain ERA); remark: listed apart in the source
[18] = target: looped/cyclic peptide … (rabies virus strain ERA); remark: listed apart in the source
[19] = target: looped/cyclic peptide … (rabies virus strain ERA); remark: listed apart in the source
[20] = target: looped/cyclic peptide … (rabies virus strain ERA); remark: listed apart in the source
[21] = target: looped/cyclic peptide ADPSTVFKDGDEAED (rabies virus strain ERA)
[22] = target: looped/cyclic peptide … (rabies virus strain ERA); remark: listed apart in the source
[23] = target: looped/cyclic peptide … (rabies virus strain ERA); remark: listed apart in the source
[24] = target: looped/cyclic peptide … (rabies virus strain ERA); remark: listed apart in the source
[25] = target: looped/cyclic peptide … (rabies virus strain ERA); remark: listed apart in the source
[26] = target: looped/cyclic peptide … (rabies virus strain ERA); remark: listed apart in the source
[27] = target: looped/cyclic peptide … (rabies virus strain ERA); remark: listed apart in the source
[28] = target: looped/cyclic peptide … (rabies virus strain ERA); remark: listed apart in the source
[29] = target: looped/cyclic peptide … (rabies virus strain ERA); remark: listed apart in the source
[30] = target: looped/cyclic peptide … (rabies virus strain ERA); remark: listed apart in the source
[31] = target: looped/cyclic peptide … (rabies virus strain ERA); remark: listed apart in the source
[32] = target: looped/cyclic peptide … (rabies virus strain ERA); remark: listed apart in the source
[33] = target: looped/cyclic peptide … (rabies virus strain ERA); remark: listed apart in the source
[34] = target: looped/cyclic peptide … (rabies virus strain ERA); remark: listed apart in the source
[35] = target: looped/cyclic peptide … (rabies virus strain ERA); remark: listed apart in the source
[36] = target: looped/cyclic peptide … (rabies virus strain ERA); remark: listed apart in the source
[37] = target: looped/cyclic peptide … (rabies virus strain ERA); remark: listed apart in the source
[38] = target: looped/cyclic peptide … (rabies virus strain ERA); remark: listed apart in the source
[39] = target: looped/cyclic peptide … (rabies virus strain ERA); remark: listed apart in the source
[40] = target: looped/cyclic peptide … (rabies virus strain ERA); remark: listed apart in the source
[41] = target: looped/cyclic peptide … (rabies virus strain ERA); remark: listed apart in the source
[42] = target: looped/cyclic peptide … (rabies virus strain ERA); remark: listed apart in the source
[43] = target: looped/cyclic peptide … (rabies virus strain ERA); remark: listed apart in the source
[44] = target: looped/cyclic peptide … (rabies virus strain ERA); remark: listed apart in the source
[45] = target: looped/cyclic peptide … (rabies virus strain ERA); remark: listed apart in the source
[46] = target: looped/cyclic peptide … (rabies virus strain ERA); remark: listed apart in the source
[47] = target: looped/cyclic peptide … (rabies virus strain ERA); remark: listed apart in the source
[48] = target: looped/cyclic peptide … (rabies virus strain ERA); remark: listed apart in the source
[49] = target: looped/cyclic peptide … (rabies virus strain ERA); remark: listed apart in the source
[50] = target: looped/cyclic peptide … (rabies virus strain ERA); remark: listed apart in the source
[51] = target: looped/cyclic peptide … (rabies virus strain ERA); remark: listed apart in the source
[52] = target: looped/cyclic peptide … (rabies virus strain ERA); remark: listed apart in the source
[53] = target: looped/cyclic peptide … (rabies virus strain ERA); remark: listed apart in the source
[54] = target: looped/cyclic peptide … (rabies virus strain ERA); remark: listed apart in the source
[55] = target: looped/cyclic peptide … (rabies virus strain ERA); remark: listed apart in the source
[56] = target: looped/cyclic peptide … (rabies virus strain ERA); remark: listed apart in the source
[57] = target: looped/cyclic peptide … (rabies virus strain ERA); remark: listed apart in the source
[58] = target: looped/cyclic peptide … (rabies virus strain ERA); remark: listed apart in the source
[59] = target: looped/cyclic peptide … (rabies virus strain ERA); remark: listed apart in the source
[60] = target: looped/cyclic peptide … (rabies virus strain ERA); remark: listed apart in the source
[61] = target: looped/cyclic peptide … (rabies virus strain ERA); remark: listed apart in the source

B1: human monoclonal antibody CRJB (antibody, V domains shown)
VH: QITLKETGPTLVKPTQTLTLTCTFSGFSLSTSGVGVGWIRQPPGKALEWVTLIYWDDDKRYSPSLENRVTIRKDTSKNQVALTMTNMDPLDTGTYYCAHRQHISSFPWFDSWGQGTLVTVSS
VL: SYVLTQPPSVSVAPGKTARINCGGNNIEYRSVHWYQQKSGQAPVAVIYDNSDRPSGIPERFSGSKSGNTATLTISRVEAGDEADYYCQVWDISSDVVFGGGTKLTVLG
[1]
  OD: 76 OD
[2]
  OD: 92 OD
[3]
  OD: 79 OD
[4]
  OD: 98 OD
[5]
  OD: 92 OD
[6]
  OD: 85 OD
[7]
  OD: 105 OD
[8]
  OD: 78 OD
[9]
  OD: 104 OD
[10]
  OD: 85 OD
[11]
  OD: 82 OD
[12]
  OD: 96 OD
[13]
  OD: 103 OD
[14]
  OD: 93 OD
[15]
  OD: 113 OD
[16]
  OD: 113 OD
[17]
  OD: 90 OD
[18]
  OD: 71 OD
[19]
  OD: 82 OD
[20]
  OD: 111 OD
[21]
  OD: 72 OD
[22]
  OD: 76 OD
[23]
  OD: 86 OD
[24]
  OD: 104 OD
[25]
  OD: 90 OD
[26]
  OD: 101 OD
[27]
  OD: 87 OD
[28]
  OD: 98 OD
[29]
  OD: 87 OD
[30]
  OD: 106 OD
[31]
  OD: 97 OD
[32]
  OD: 78 OD
[33]
  OD: 83 OD
[34]
  OD: 106 OD
[35]
  OD: 123 OD
[36]
  OD: 79 OD
[37]
  OD: 85 OD
[38]
  OD: 92 OD
[39]
  OD: 90 OD
[40]
  OD: 64 OD
[41]
  OD: 147 OD
[42]
  OD: 105 OD
[43]
  OD: 90 OD
[44]
  OD: 129 OD
[45]
  OD: 101 OD
[46]
  OD: 71 OD
[47]
  OD: 104 OD
[48]
  OD: 94 OD
[49]
  OD: 104 OD
[50]
  OD: 79 OD
[51]
  OD: 93 OD
[52]
  OD: 100 OD
[53]
  OD: 58 OD
[54]
  OD: 79 OD
[55]
  OD: 97 OD
[56]
  OD: 102 OD
[57]
  OD: 85 OD
[58]
  OD: 91 OD
[59]
  OD: 100 OD
[60]
  OD: 85 OD
[61]
  OD: 100 OD
